Reference: the supplement of paper PMC5998384

How the values were obtained:
[1] = test system: HeLa Kyoto; assay: solubility change mitosis vs G1/S (difference of NP-40 vs SDS log2 ratios) (log2 ratio difference); higher = more soluble in mitosis
[2] = test system: HeLa Kyoto; assay: melting temperature (median over replicates), in situ; higher = more thermally stable
[3] = test system: HeLa Kyoto; assay: solubility in G1/S (NP-40 vs SDS abundance) (log2 ratio); higher = more soluble; settings: cell cycle stage: G1/S
[4] = test system: HeLa Kyoto; assay: thermal stability score vs G1/S (z-score of summed log2 fold changes over temperatures); higher = more thermally stable than in G1/S
[5] = cell cycle stage: early G1 (4.5 h after nocodazole release)
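Throughout, for melting temperature (median over replicates), in situ: HeLa Kyoto cells synchronized by double thymidine or nocodazole block, proteins quantified by TMT10plex mass spectrometry, three independent biological replicates.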
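Throughout, for solubility change mitosis vs G1/S (difference of NP-40 vs SDS log2 ratios): synchronized HeLa Kyoto cells (double thymidine block for G1/S, nocodazole release for mitosis), protein amounts in NP-40 versus SDS lysates quantified by mass spectrometry, three biological replicates.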
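Throughout, for solubility in G1/S (NP-40 vs SDS abundance): HeLa Kyoto cells arrested at G1/S by double thymidine block, proteins quantified by TMT10plex mass spectrometry in mild NP-40 versus SDS extracts, three biological replicates.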
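Throughout, for thermal stability score vs G1/S (z-score of summed log2 fold changes over temperatures): synchronized HeLa Kyoto cells, proteins quantified by TMT10plex mass spectrometry, three biological replicates, mitosis taken 0.5 h after nocodazole release, G1/S directly after double thymidine block.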

Row | Substance | solubility change mitosis (log2) [1] | melting temperature ([2]; cell cycle stage: G1/S) | melting temperature ([2]; cell cycle stage: mitosis) | solubility in G1/S (log2) [3] | thermal stability score [4, 5] | thermal stability score ([4]; cell cycle stage: mitosis)
1 | MDRPLSSSAEAEEELEWQVASRRRKAWAKCRSSWQASETEDLSTEATTQDEEEDEEEDLPGAQLPAAGGRGNVPNEKIAIWLKDCRTPLGASLDEQSSSTLKGVLVRNGGSFEDDLSLGAEANHLHESDAQIENCNNILAKERRLQFHQKGRSMNSTGSGKSSGTVSSVSELLELYEEDPEEILYNLGFGRDEPDIASKIPSRFFNSSSFAKGIDIKVFLSAQMQRMEVENPNYALTSRFRQIEVLTTVANAFSSLYSQVSGTPLQRIGSMSSVTSNKETDPPPPLTRSNTANRLMKTLSKLNLCVDKTEKGESSSPSPSAEKGKILNVSVIEESGNKNDQKSQKIMKKKESSSMLATVKEEVSGSSAAVTENADSDRISDEANSNFNQGTENEQSKETQSHESKLGEESGIVESKLDSDFNISSHSELENSSELKSVHISTPEKEPCAPLTIPSIRNIMTQQKDSFEMEEVQSTEGEAPHVPATYQLGLTKSKRDHLLRTASQHSDSSGFAEDSTDCLSLNHLQVQESLQAMGSSADSCDSETTVTSLGEDLATPTAQDQPYFNESEEESLVPLQKGLEKAAAVADKRKSGSQDFPQCNTIENTGTKQSTCSPGDHIIEITEVEEDLFPAETVELLREASAESDVGKSSESEFTQYTTHHILKSLASIEAKCSDMSSENTTGPPSSMDRVNTALQRAQMKVCSLSNQRMGRSLLKSKDLLKQRYLFAKAGYPLRRSQSLPTTLLSPVRVVSSVNVRLSPGKETRCSPPSFTYKYTPEEEQELEKRVMEHDGQSLVKSTIFISPSSVKKEEAPQSEAPRVEECHHGRTPTCSRLAPPPMSQSTCSLHSIHSEWQERPLCEHTRTLSTHSVPNISGATCSAFASPFGCPYSHRHATYPYRVCSVNPPSAIEMQLRRVLHDIRNSLQNLSQYPMMRGPDPAAAPYSTQKSSVLPLYENTFQELQVMRRSLNLFRTQMMDLELAMLRQQTMVYHHMTEEERFEVDQLQGLRNSVRMELQDLELQLEERLLGLEEQLRAVRMPSPFRSSALMGMCGSRSADNLSCPSPLNVMEPVTELMQEQSYLKSELGLGLGEMGFEIPPGESSESVFSQATSESSSVCSGPSHANRRTGVPSTASVGKSKTPLVARKKVFRASVALTPTAPSRTGSVQTPPDLESSEEVDAAEGAPEVVGPKSEVEEGHGKLPSMPAAEEMHKNVEQDELQQVIREIKESIVGEIRREIVSGLLAAVSSSKASNSKQDYH [SSFA2] | 0.802 | 50.8 °C | 49.8 °C | -0.81 | -1.42 | -0.947
2 | MAHTTKVNGSASGKAGDILSGDQDKEQKDPYFVETPYGYQLDLDFLKYVDDIQKGNTIKRLNIQKRRKPSVPCPEPRTTSGQQGIWTSTESLSSSNSDDNKQCPNFLIARSQVTSTPISKPPPPLETSLPFLTIPENRQLPPPSPQLPKHNLHVTKTLMETRRRLEQERATMQMTPGEFRRPRLASFGGMGTTSSLPSFVGSGNHNPAKHQLQNGYQGNGDYGSYAPAAPTTSSMGSSIRHSPLSSGISTPVTNVSPMHLQHIREQMAIALKRLKELEEQVRTIPVLQVKISVLQEEKRQLVSQLKNQRAASQINVCGVRKRSYSAGNASQLEQLSRARRSGGELYIDYEEEEMETVEQSTQRIKEFRQLTADMQALEQKIQDSSCEASSELRENGECRSVAVGAEENMNDIVVYHRGSRSCKDAAVGTLVEMRNCGVSVTEAMLGVMTEADKEIELQQQTIESLKEKIYRLEVQLRETTHDREMTKLKQELQAAGSRKKVDKATMAQPLVFSKVVEAVVQTRDQMVGSHMDLVDTCVGTSVETNSVGISCQPECKNKVVGPELPMNWWIVKERVEMHDRCAGRSVEMCDKSVSVEVSVCETGSNTEESVNDLTLLKTNLNLKEVRSIGCGDCSVDVTVCSPKECASRGVNTEAVSQVEAAVMAVPRTADQDTSTDLEQVHQFTNTETATLIESCTNTCLSTLDKQTSTQTVETRTVAVGEGRVKDINSSTKTRSIGVGTLLSGHSGFDRPSAVKTKESGVGQININDNYLVGLKMRTIACGPPQLTVGLTASRRSVGVGDDPVGESLENPQPQAPLGMMTGLDHYIERIQKLLAEQQTLLAENYSELAEAFGEPHSQMGSLNSQLISTLSSINSVMKSASTEELRNPDFQKTSLGKITGNYLGYTCKCGGLQSGSPLSSQTSQPEQEVGTSEGKPISSLDAFPTQEGTLSPVNLTDDQIAAGLYACTNNESTLKSIMKKKDGNKDSNGAKKNLQFVGINGGYETTSSDDSSSDESSSSESDDECDVIEYPLEEEEEEEDEDTRGMAEGHHAVNIEGLKSARVEDEMQVQECEPEKVEIRERYELSEKMLSACNLLKNTINDPKALTSKDMRFCLNTLQHEWFRVSSQKSAIPAMVGDYIAAFEAISPDVLRYVINLADGNGNTALHYSVSHSNFEIVKLLLDADVCNVDHQNKAGYTPIMLAALAAVEAEKDMRIVEELFGCGDVNAKASQAGQTALMLAVSHGRIDMVKGLLACGADVNIQDDEGSTALMCASEHGHVEIVKLLLAQPGCNGHLEDNDGSTALSIALEAGHKDIAVLLYAHVNFAKAQSPGTPRLGRKTSPGPTHRGSFD [KANK1] | -0.0616 | 49.3 °C | 49.4 °C | -0.0496 | 0.397 | 2.14
3 | MFCVTPPELETKMNITKGGLVLFSANSNSSCMELSKKIAERLGVEMGKVQVYQEPNRETRVQIQESVRGKDVFIIQTVSKDVNTTIMELLIMVYACKTSCAKSIIGVIPYFPYSKQCKMRKRGSIVSKLLASMMCKAGLTHLITMDLHQKEIQGFFNIPVDNLRASPFLLQYIQEEIPDYRNAVIVAKSPASAKRAQSFAERLRLGIAVIHGEAQDAESDLVDGRHSPPMVRSVAAIHPSLEIPMLIPKEKPPITVVGDVGGRIAIIVDDIIDDVDSFLAAAETLKERGAYKIFVMATHGLLSSDAPRRIEESAIDEVVVTNTIPHEVQKLQCPKIKTVDISMILSEAIRRIHNGESMSYLFRNIGLDD [PRPSAP2] | -0.121 | 57.5 °C | 57.4 °C | 0.117 | -0.303 | -0.671
4 | MSRFVQDLSKAMSQDGASQFQEVIRQELELSVKKELEKILTTASSHEFEHTKKDLDGFRKLFHRFLQEKGPSVDWGKIQRPPEDSIQPYEKIKARGLPDNISSVLNKLVVVKLNGGLGTSMGCKGPKSLIGVRNENTFLDLTVQQIEHLNKTYNTDVPLVLMNSFNTDEDTKKILQKYNHCRVKIYTFNQSRYPRINKESLLPVAKDVSYSGENTEAWYPPGHGDIYASFYNSGLLDTFIGEGKEYIFVSNIDNLGATVDLYILNHLMNPPNGKRCEFVMEVTNKTRADVKGGTLTQYEGKLRLVEIAQVPKAHVDEFKSVSKFKIFNTNNLWISLAAVKRLQEQNAIDMEIIVNAKTLDGGLNVIQLETAVGAAIKSFENSLGINVPRSRFLPVKTTSDLLLVMSNLYSLNAGSLTMSEKREFPTVPLVKLGSSFTKVQDYLRRFESIPDMLELDHLTVSGDVTFGKNVSLKGTVIIIANHGDRIDIPPGAVLENKIVSGNLRILDH [UGP2] | -0.072 | 55.9 °C | 56 °C | 0.158 | 0.682 | 0.921
5 | MACAAARSPADQDRFICIYPAYLNNKKTIAEGRRIPISKAVENPTATEIQDVCSAVGLNVFLEKNKMYSREWNRDVQYRGRVRVQLKQEDGSLCLVQFPSRKSVMLYAAEMIPKLKTRTQKTGGADQSLQQGEGSKKGKGKKKK [SRP19] | 0.161 | 50.8 °C | 50.8 °C | 0.299 | 0.816 | -0.116
6 | MDDQQALNSIMQDLAVLHKASRPALSLQETRKAKSSSPKKQNDVRVKFEHRGEKRILQFPRPVKLEDLRSKAKIAFGQSMDLHYTNNELVIPLTTQDDLDKAVELLDRSIHMKSLKILLVINGSTQATNLEPLPSLEDLDNTVFGAERKKRLSIIGPTSRDRSSPPPGYIPDELHQVARNGSFTSINSEGEFIPESMDQMLDPLSLSSPENSGSGSCPSLDSPLDGESYPKSRMPRAQSYPDNHQEFSDYDNPIFEKFGKGGTYPRRYHVSYHHQEYNDGRKTFPRARRTQGTSLRSPVSFSPTDHSLSTSSGSSIFTPEYDDSRIRRRGSDIDNPTLTVMDISPPSRSPRAPTNWRLGKLLGQGAFGRVYLCYDVDTGRELAVKQVQFDPDSPETSKEVNALECEIQLLKNLLHERIVQYYGCLRDPQEKTLSIFMEYMPGGSIKDQLKAYGALTENVTRKYTRQILEGVHYLHSNMIVHRDIKGANILRDSTGNVKLGDFGASKRLQTICLSGTGMKSVTGTPYWMSPEVISGEGYGRKADIWSVACTVVEMLTEKPPWAEFEAMAAIFKIATQPTNPKLPPHVSDYTRDFLKRIFVEAKLRPSADELLRHMFVHYH [MAP3K2] | -0.043 | 51.3 °C | 51.4 °C | 0.0839 | 0.798 | 1.24
7 | MYPESTTGSPARLSLRQTGSPGMIYSTRYGSPKRQLQFYRNLGKSGLRVSCLGLGTWVTFGGQITDEMAEQLMTLAYDNGINLFDTAEVYAAGKAEVVLGNIIKKKGWRRSSLVITTKIFWGGKAETERGLSRKHIIEGLKASLERLQLEYVDVVFANRPDPNTPMEETVRAMTHVINQGMAMYWGTSRWSSMEIMEAYSVARQFNLTPPICEQAEYHMFQREKVEVQLPELFHKIGVGAMTWSPLACGIVSGKYDSGIPPYSRASLKGYQWLKDKILSEEGRRQQAKLKELQAIAERLGCTLPQLAIAWCLRNEGVSSVLLGASNADQLMENIGAIQVLPKLSSSIIHEIDSILGNKPYSKKDYRS [KCNAB2] | -0.201 | 60.3 °C | 58.8 °C | 0.117 | -0.252 | 3.11
8 | MKVKMLSRNPDNYVRETKLDLQRVPRNYDPALHPFEVPREYIRALNATKLERVFAKPFLASLDGHRDGVNCLAKHPEKLATVLSGACDGEVRIWNLTQRNCIRTIQAHEGFVRGICTRFCGTSFFTVGDDKTVKQWKMDGPGYGDEEEPLHTILGKTVYTGIDHHWKEAVFATCGQQVDIWDEQRTNPICSMTWGFDSISSVKFNPIETFLLGSCASDRNIVLYDMRQATPLKKVILDMRTNTICWNPMEAFIFTAANEDYNLYTFDMRALDTPVMVHMDHVSAVLDVDYSPTGKEFVSASFDKSIRIFPVDKSRSREVYHTKRMQHVICVKWTSDSKYIMCGSDEMNIRLWKANASEKLGVLTSREKAAKDYNQKLKEKFQHYPHIKRIARHRHLPKSIYSQIQEQRIMKEARRRKEVNRIKHSKPGSVPLVSEKKKHVVAVVK [DCAF13] | 0.446 | 54.8 °C |  | -2.16 | -1.4 | -1.29
9 | ZSWIM8 | -0.0253 | 49.2 °C | 49 °C | -0.162 | 0.66 | 1.55
